Assay: In vitro release (dissolution) of Infliximab from packed silicone cup and of lyophilized powder
Assay type: physicochemical
Details: release into 600 μl water with stirring at room temperature (23° C.); UV absorption at 280 nm
Protocol: A solid drug pellet (FIG. 4, 402.) was created by mixing 75% infliximab with 25% hydroxy propyl methyl cellulose (HPMC). This solid pellet was packed into a silicone cup (FIG. 1, 101.). The drug can only release from one end of the silicone and this end is subsequently coated with a controlled release polymer formulation of 5 μl of 10% polylactic acid (FIG. 1, 107.) to control its release. Dissolution studies were performed with lyophilized infliximab powder and infliximab packed extended release formulations. For each sample, release into 600 μl water was carried out with stirring at room temperature (23° C.). Aliquots were removed at timed intervals and analyzed with UV absorption spectroscopy at 280 nm using a Spectramax Plus384 96 well plate reader.

Lyophilized infliximab powder: TNF-α inhibitor infliximab as unformulated lyophilized powder, comparator in dissolution study
release upon addition to solvent: releases almost immediately
